Target: extracellular domain of human DPP4 (residues 39-766), wild type (human), P27487
Test: nonreducing SDS-PAGE
Conditions: remark: other sources report otherwise

B1: extracellular domain of human DPP4 (residues 39-766), wild type, P27487 39-766 (domain or fragment)
chain: SRKTYTLTDYLKNTYRLKLYSLRWISDHEYLYKQENNILVFNAEYGNSSVFLENSTFDEFGHSINDYSISPDGQFILLEYNYVKQWRHSYTASYDIYDLNKRQLITEERIPNNTQWVTWSPVGHKLAYVWNNDIYVKIEPNLPSYRITWTGKEDIIYNGITDWVYEEEVFSAYSALWWSPNGTFLAYAQFNDTEVPLIEYSFYSDESLQYPKTVRVPYPKAGAVNPTVKFFVVNTDSLSSVTNATSIQITAPASMLIGDHYLCDVTWATQERISLQWLRRIQNYSVMDICDYDESSGRWNCLVARQHIEMSTTGWVGRFRPSEPHFTLDGNSFYKIISNEEGYRHICYFQIDKKDCTFITKGTWEVIGIEALTSDYLYYISNEYKGMPGGRNLYKIQLSDYTKVTCLSCELNPERCQYYSVSFSKEAKYYQLRCSGPGLPLYTLHSSVNDKGLRVLEDNSALDKMLQNVQMPSKKLDFIILNETKFWYQMILPPHFDKSKKYPLLLDVYAGPCSQKADTVFRLNWATYLASTENIIVASFDGRGSGYQGDKIMHAINRRLGTFEVEDQIEAARQFSKMGFVDNKRIAIWGWSYGGYVTSMVLGSGSGVFKCGIAVAPVSRWEYYDSVYTERYMGLPTPEDNLDHYRNSTVMSRAENFKQVEYLLIHGTADDNVHFQQSAQISKALVDVGVDFQAMWYTDEDHGIASSTAHQHIYTHMSHFIKQCFSLP
modifications: here or on the partner: glycosylated (sites not given); glycosylated (sites not given)
dimer percent: 40.8%
